Laboratory results taken from the supplement of paper PMC10567573.

B1: RSPH3 (parent)
chain: VDVQTELYLEEIADRIIEVDMECQ
B2: ZBTB22 (parent)
chain: HTGLKPYECGVCAKKFMWRDSFMR

Variants of: B1
Experiment: protein stability index of a GFP-peptide fusion (GPS, HEK-293T) (PSI 1-6); higher = more stable
Conditions: c terminus: a fixed tail appended
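Also: lentivirally expressed fusions sorted by FACS into six bins by GFP to DsRed ratio, PSI derived from sequencing read proportions per bin multiplied by bin number.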

Protein stability index of substitutions, site by site:
Q4: V 3.19 | W 2.27 | H 3.22 | P 2.39 | A 2.19 | G 3.62 | K 2.43 | S 2.7 | F 3.48 | Y 1.66 | D 1.45 | E 2.32 | N 1.85 | M 2.07 | L 1.97 | T 2.47 | C 2.29
V19: I 2.36 | Q 3.76 | R 4.23 | P 4.3 | H 3.55 | E 4.65 | F 2.3 | D 5.01 | L 1.59 | M 2.79 | N 4.1 | K 4.5 | A 3.81 | G 4.16 | S 4.1 | C 1.89
E11: P 2.98 | Q 2.73 | G 2.48 | C 2.83 | N 3.26 | I 3.16 | T 2.41 | F 1.89 | D 1.82 | S 2.02 | M 3.38 | H 2.23 | R 2.22 | K 2.85 | Y 2.88 | A 1.95
E18: C 2.48 | A 2.22 | K 2.59 | R 2.51 | D 3.12 | F 2.26 | G 2.86 | W 2.23 | N 2.7 | M 1.94 | V 2.85 | S 2.44 | T 2.23 | Q 1.57 | Y 2.03 | I 2.01 | H 2.31 | P 2.79
L7: N 3.96 | D 2.71 | F 1.79 | T 3 | C 3.01 | H 3.38 | G 4.11 | W 2.04 | K 3.96 | S 3.06 | R 2.65 | P 3.07 | E 4.3 | V 1.45 | A 3.2 | I 2.1 | M 1.73 | Y 2.34 | Q 3.41
E6: A 1.73 | N 2.18 | W 2.21 | H 2.19 | P 3.41 | L 1.65 | C 1.57 | D 2.03 | K 2.44 | V 2.24 | G 3.25 | T 1.83 | R 2.52 | S 2.39 | Q 2.14 | F 1.64 | M 3.63
R15: F 2.31 | Y 2.79 | V 2.65 | K 3.1 | W 3.01 | M 2.24 | P 3.73 | S 3.16 | C 1.54 | T 2.56 | A 2.55 | N 3.66 | Q 3.58 | E 3.55 | D 3.17 | H 2.77 | G 3.14
T5: Y 3.42 | A 2.3 | Q 2.52 | M 2.38 | D 3.17 | H 2.42 | C 1.75 | N 3.23 | G 2.46 | R 3.09 | K 3.87 | F 2.96 | S 2.5 | P 3.27 | E 3.08
I12: S 4.98 | A 4.36 | L 1.72 | W 1.12 | R 4.25 | P 4.53 | D 4.39 | N 4.46 | G 4.63 | F 1.61 | H 4.28 | E 4.84 | Q 4.37 | Y 2.96 | M 3.11 | C 3.22 | V 2.91 | K 4.77 | T 4.42
Y8: D 4.25 | V 2.85 | H 3.85 | M 2.34 | F 1.92 | P 3.77 | C 3.04 | N 4 | Q 4.25 | I 1.71 | E 4.48 | G 4.65 | W 2.51 | R 3.11 | S 3.65 | A 4.03 | T 3.5
I17: K 3.65 | G 4.14 | N 2.81 | V 2.39 | D 3.99 | S 3.74 | T 3.6 | F 1.96 | Q 3.47 | P 4.26 | A 2.41 | H 2.94 | L 2.17 | C 2.58 | Y 2.09 | R 3.33 | M 1.87 | E 3.87
I16: G 4.3 | W 2.97 | V 3.37 | T 4.19 | R 3.23 | K 4.49 | E 4.48 | M 2.36 | Q 4.18 | C 2.85 | P 4.93 | H 4.19 | A 3.63 | D 4.54 | Y 2.57 | F 1.87
D2: A 1.63 | Y 3.84 | N 2.17 | P 3.08 | E 2.51 | S 1.81 | T 2.39 | R 1.76 | G 1.81 | K 1.91 | L 2.6 | I 2.61 | Q 1.72 | C 2.57 | M 3.88
V3: H 2.4 | G 3.74 | T 2.92 | P 3.36 | W 2.14 | R 3.38 | S 2.56 | M 2.26 | K 2.7 | Y 1.85 | L 3.01 | Q 3.04 | C 2.35 | E 2.66 | N 2.99 | A 3.22 | D 2.66
D14: Q 2.32 | N 2.11 | K 1.93 | S 2.08 | H 1.55 | W 3.47 | T 1.93 | E 1.92 | A 1.94 | P 2.45
V1: M 2.39 | I 1.64 | R 2.57 | T 3.75 | W 2.44 | L 1.72 | H 3.24 | P 3.11 | F 1.55 | A 3.1 | Y 1.94 | G 2.86 | E 3.11 | S 3.88 | D 3.3 | N 3.75 | C 2.36 | Q 3.25 | K 2.79
A13: N 3.2 | Y 1.53 | C 2.31 | H 2.5 | K 3.05 | S 2.57 | E 2.87 | Q 3.05 | G 2.95 | R 2.27 | M 1.58 | D 3.9 | V 2.17 | P 3.53 | T 2.62 | F 2.41 | I 2.22 | W 1.65
L9: P 4.5 | R 4.19 | K 4.65 | A 4.01 | T 4.38 | F 2.21 | C 3.4 | M 3.33 | S 4.92 | G 4.44 | H 4.71 | E 5.12 | Q 5.62 | N 5.14 | I 2.33 | W 1.97 | D 5.51 | Y 2.79 | V 2.91
E10: A 1.53 | R 2.15 | P 3.62 | S 2.39 | F 2.25 | H 2 | Q 1.93 | C 1.58 | G 2.42 | N 2.06 | D 2.54 | T 1.86 | Y 3.16 | K 2.48 | W 3.73

Variants of: B2
Experiment: as above
Conditions: c terminus: a fixed tail appended

Protein stability index, by site and new letter:
M23: Q 3.15
V11: D 3.26
S21: F 1.98 | I 2.32
K5: N 1.56
K15: Q 2.05
A13: D 1 | G 1.54
G10: H 1.96
L4: C 1.64
C9: E 1.1 | F 3.19
R19: T 2.13
W18: I 1.57
F22: E 3.96
G3: T 2.23
